Assay results from the supplement of paper PMC9170038.

System: K4 kissing-loop RNA reporter
Assay: apparent KD of K4 kissing-loop reporter; higher = weaker reporter binding
Conditions: Eterna round: R107
Description: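 RNA-MaP round R107: designed RNA switches with theophylline, tryptophan, arginine or FMN aptamers are transcribed on-chip within common flanks. They are titrated with a labelled K4 kissing-loop RNA reporter in RNA-MaP buffer (100 mM Tris pH 7.5, 80 mM KCl, 4 mM MgCl2), without ligand or with the indicated ligand. Median apparent KD per design.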

[1] = input ligand: theophylline 20 uM
[2] = input ligand: tryptophan 2.4 mM
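Note: bound reporter read as fluorescence of individual clusters on recovered sequencing chips by microscopy, with normalized cluster intensities fitted with a binding model.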

Sequence	apparent KD of K4 kissing-loop reporter (input ligand: FMN 200 uM)	apparent KD of K4 kissing-loop reporter (input ligand: arginine 13.2 mM)	apparent KD of K4 kissing-loop reporter (input ligand: none)	apparent KD of K4 kissing-loop reporter [1]	apparent KD of K4 kissing-loop reporter [2]
AAAAUAAACCAGUGAUGUUGGUGUCCAGAUACCAGCGAUAAAAGUCGCCCUUGGCAGCUGUGGACGUACAAAAUAAGUACGUCCU [MatMod 2 - Jieux - Same State - Theophylline A]	703 nM	533 nM	872 nM	529 nM	678 nM
AAAAUAAACCAGUGAUGUUGGUGUCUAGAUACCAGCGACGAAAGUCGCCCUUGGCAGCUGUGGACGUACAAAAUAAGUACGUCCU [MatMod 5 - Jieux - Same State - Theophylline A]	564 nM	327 nM	541 nM	480 nM	472 nM
AAAAUAAUCCAGUGAUGUUGGUAACCAGAUACCAGCGACGAAAGUCGCCCUUGGCAGCUGUGGACGUACAAAAUAAGUACGUCCU	344 nM	415 nM	441 nM	358 nM	312 nM
AAACAUCACUGGGAGUGAUGUUCUCAGUGACGAGGACCGGUACGGCCGCCACUCGCGAGAGAUAUAGUCUAGUAAUGACUGCAUU [Excl Tryptophan A V9]	299 nM	274 nM	292 nM	322 nM	391 nM
AAAGAGUCACUCGAAGCCAUCGAAGAUGGGCGAGGACCGGUACGGCCGCCACUCGGAGUGAUGUUCCGAAGACUGUAAAAUAAAA [MatMod 11 - Jieux - Exclusion - Tryptophan A]	273 nM	242 nM	451 nM	362 nM	355 nM
AAAGAGUCCUGAGCCGAAGAAGAAGGCGGACGAGGACCGGUACGGCCGCCACUCGAAAGGAGUGCGGCUGAGUGAUGUUUGGCCG [Tryptophan A (C-G optomized)]	342 nM	181 nM	284 nM	281 nM	268 nM
AAAGUAUACUGAAGGAGCGAGUAGUGGAAACAUAAACUCAUUGCGAGUGAUGUUCGCAGUACUCAGGUAGGUCGCGGUAAUCGUA [Exclusion Arginine B Gf 12]	499 nM	498 nM	934 nM	554 nM	558 nM
AAAUAAAGCAGUCACCCAGUGAUGUUGGAAGGAGCGUGCGAAAGCACAGGUAGGUCGCCAAAAUAAAGUGGCUGCGGCAAAGCCA [#SwitchBubble 25 #K4Early]	409 nM	428 nM	399 nM	578 nM	305 nM
AAAUAGAUCAGUCAACCAGUGAUGUUGGAAGGAGCGUGCGAAAGCACAGGUAGGUCGCCAUAAUAAAAUUGGCUGAUCAAAAUAA	340 nM	615 nM	648 nM	614 nM	344 nM
AAAUAGAUCAGUCACCCAGUGAUGUUGGAAGGAGCGUGCGAAAGCACAGGUAGGUCGCCAAAAUAAAAGUGGCUGAUCAAAAUAA [#SwitchBubble 5 #K4Early]	336 nM	300 nM	389 nM	526 nM	226 nM
AAAUCGUUCAGAAGGAGCGUGAAUUAUUCUUAAUUAUAUUAUACGAGUGAUGUUCGUGUUUCACAGGUAGGUCGCUGAUCGAUAA [JR_SSArginiB_Sub005]	94.4 nM	126 nM	95.6 nM	148 nM	84.1 nM
AACAUUUUCAGAAGGAGCGUGAAUUAUUCAUAAUUAUAUUAUACGAGUGAUGUUCGUAUUUCACAGGUAGGUCGCUGAUAUAGUA [#02 K4 Arginine B Same State]	94.5 nM	127 nM	104 nM	121 nM	93.1 nM
AACGUUUUGAGAAGGAGCGCGAUAAGCAGUGAUGUUGCUAAAAUUCUAUUUCAAUUUAAUACGCAGGUAGGUCGCUCAAUACGUA [JR_SSArginiB_Sub020]	143 nM	136 nM	138 nM	156 nM	118 nM
AACUCUCAGACACUUGAGUGAUGUUCAGGCCGAGGACCGGUACGGCCGCCACUCGGGUCUGAGAGAGGUUAUCAAAGAUAGCCAA [Omei KL Tryp A SS A v5]	350 nM	194 nM	249 nM	261 nM	273 nM
AAGAGAUAGGGAGGAUAUGCCCUAUUGAGAACCGAGUGAUGUUCGGUAGGACAAAUAGUCCACAGGGUAGAAGGCCCACAUCACA [SS FNM B Tesla 2]	191 nM	213 nM	244 nM	476 nM	267 nM
AAGAGCCUCAAGAGGCAGUAUCUGCCUCAACGAGGACCGGUACGGCCGCCACUCGAAUAAUAGAGUGAUGUUCUAAGAGGCUCAA [AK8 SS Tryptophan A]	710 nM	558 nM	586 nM	548 nM	487 nM
AAGAGGUAGGCGGCCGCCACUUGUUGUGAACACAUACGAGCCAGUGAUGUUGGUAUUGUGGGCGGAAGGACCGGGCCUACCUGAA [Exclusion - Tryptophan B (Freestyle 20)]	317 nM	304 nM	320 nM	328 nM	386 nM
AAGCAGUCACUCGAAAUCAUCAAAGAUGAACGAGGACCGGUACGGCCGCCACUCGGAGUGAUGUUCCGAAGACUGCAAAAUAAAA [MatMod 2 - Jieux - Exclusion - Tryptophan A]	307 nM	225 nM	243 nM	274 nM	112 nM
AAGCAGUCACUCGAAUCCAUCGAAGAUGGGCGAGGACCGGUACGGCCGCCACUCGGAGUGAUGUUCCAAAGACUGCAAAAUAAAA	451 nM	378 nM	306 nM	550 nM	136 nM
AAGCAGUCUCUUGUAACCAUCGAAGAUGGACGAGGACCGGUACGGCCGCCACUCGGAGUGAUGUUCCGAAGACUGCAAAAUAAAA [MatMod 15 - Jieux - Exclusion - Tryptophan A]	713 nM	712 nM	828 nM	1280 nM	1350 nM
AAGCGUAAAAUGGCGGACAUACUGCUCCCACGAGGACCGGUACGGCCGCCACUCGAGUGCGGCAGUGAUGUUGCCGCCUUAGCGU [KL-XTryp-A20]	92.9 nM	81.3 nM	92 nM	80.3 nM	81.9 nM

Sequence	apparent KD of K4 kissing-loop reporter (input ligand: FMN 200 uM)	apparent KD of K4 kissing-loop reporter (input ligand: arginine 13.2 mM)	apparent KD of K4 kissing-loop reporter (input ligand: none)	apparent KD of K4 kissing-loop reporter [1]	apparent KD of K4 kissing-loop reporter [2]
AAGGACUGCCAGGGAACACACUCAUUAUGGGAGGAUAUGUUAGCUGACAGAAGGCCCAGUGAUGUUGGGCCGGCGGGCUGUCAGG [Diargean]	244 nM	202 nM	218 nM	237 nM	177 nM
AAGGCACGGCUUCGGCCGUGCCAAAUAGAUACCAGCAUAAUAAUAUGCCCUUGGCAGCUAAAUAGAAAUUCAGUGAUGUUGGAUA [SS Theo A Tesla 2.1]	597 nM	444 nM	601 nM	586 nM	649 nM
AAGUAGAUCAAGAUCUAGUAUCUAGAUCAACGAGGACCGGUACGGCCGCCACUCGAAUAAUAGAGUGAUGUUCUAAGAUCUACAA [AK1.4 SS Tryptophan A]	898 nM	716 nM	994 nM	968 nM	445 nM
AAGUCUCGUUAAUUCGUGGUUUCGAUCGAUACCAGUAGCGAGAGGUACCCUUGGCAGCGAAAUGAGUGAUGUUCAUGAAAGAAGA [KL-XTheoA11]	101 nM	124 nM	111 nM	153 nM	87.1 nM
AAGUGAUGUUGUAGUGAUGUUGUGAUGUUGCAGGAUAUAUAGUGAUGUAGAAGGGUAAGUACUGAUGUUGUUAGUGAGUGAUGUU [wwzrrmullin]	111 nM	49.8 nM	87.9 nM	81.1 nM	86.6 nM
AAGUGAUGUUGUAGUGAUGUUGUGAUGUUGCAGGAUAUAUAGUGAUGUAGAAGGGUAUGUACAGUUUUUUUUUUUGAGUGAUGAU [vvcvmullin]	82.3 nM	40.1 nM	74.2 nM	51.4 nM	70.3 nM
AAGUGAUGUUGUAGUGAUGUUGUGAUGUUGCAGGAUAUAUAGUGAUGUAGAAGGGUAUGUACUUAUUUUUUUUUUGAGUUAUGUU [wzzwzrmullin]	79.5 nM	33.4 nM	58 nM	46.2 nM	63.3 nM
AAGUGAUGUUGUAGUGAUGUUGUGAUGUUGCAGGAUAUAUAGUGAUGUAGAAGGGUAUGUGCAGUGUUCUUAUUUGAGUGUUGAU [zffdmullin]	80.1 nM	33.9 nM	64.7 nM	63.2 nM	64 nM
AAGUGUGGUCCAGUGAUGUUGGAACCAGAUACCAGCGACAUAGUGCGCCCUUGGCAGCUGGCACACAUGCGCUGCACGACUAGAA [Riusveis]	206 nM	182 nM	207 nM	363 nM	168 nM
AAUAAAAUCACGGCCGCCACUGAUAUCCAUAUUAGGAGUGAUGUUCCUAUGACUAUAUAAUUUAACAGGACCGGGUGAAUAUUUA [JR_SSTryptoB_Sub024]	104 nM	111 nM	107 nM	115 nM	100 nM
AAUAAGGUCGCCGAUACCAGCGCAGGCAGAGCAAAGCUCUGCCUAGUAGUGAUGUUACUGCGCCCUUGGCAGCGGUGGCACGACC [Omei KL Theo B SS C v4]	863 nM	824 nM	930 nM	397 nM	798 nM
AAUAAGGUCGCCGAUACCAGCGCGGGCAGAGCAAAGCUCUGCCCGGCAGUGAUGUUGCCGCGCCCUUGGCAGCGGUGGCACGACC [Omei KL Theo B SS C v7]	166 nM	48.4 nM	47.2 nM	216 nM	55.8 nM
AAUAAUCUAGGUGAUACCAGCUCAACAUGAGUGAUGUUCAUGAACUAAUGUAGAGUUGAGAGCCCUUGGCAGCACCUAGAUAAUA [KL-SSTheoB6]	873 nM	792 nM	966 nM	458 nM	962 nM
AAUAAUUUCAGAGGAUAUGCUUUAUUAUGAUUUUUAAAUAAUAAAUGCAGUGAUGUUGCUUAUUAUGCAGAAGGCUGAUUUAUAA [JR_SSFMNB_Sub015]	143 nM	727 nM	747 nM	721 nM	565 nM
AAUACCUGAGUGAUGUUCAGGGAAUCAGAAGGAGCGUCAAUUAUGACAGGUAGGUCGCUGAAUACAUGUGUGUAUACACAUGUAC [Arg A SS t4]	217 nM	189 nM	278 nM	243 nM	229 nM
AAUAGGGAUAGUGAUGUUAUCCCUUAUGAUACCAGUGCCAUCGGACACCCUUGGCAGCAUACGGGCAGUGAUGUUGUUCUUGGAG [Exclusion Theophylline A GF 15]	103 nM	75.5 nM	78.6 nM	76.5 nM	79.3 nM
AAUCACCGAGCGGCCGCCACUGCACAAAGCGAGUUUAUAGACACGGUACUGGAGUGAUGUUCGAGCAGGACCGGGCUAACUAAGC [theeternabot_sameState_KL_Trp_B_12]	871 nM	610 nM	1190 nM	758 nM	729 nM
AAUGGCGAGUGAUGUUCGCCCACCAAUGAUACCAGUGCCAUCGGACACCCUUGGCAGCAUACGGGCAGUGAUGUUGCUCUUGGAA [Exclusion Theophylline A GF 26]	185 nM	181 nM	193 nM	200 nM	177 nM
AAUUAAUACAGAAGGAGCGUGAAAUUAUCUACUUUUAACUUAGCGAGUGAUGUUCGUUUUUCACAGGUAGGUCGCUGUAUAUUUA [JR_ExcArginiB_Sub009]	167 nM	214 nM	194 nM	192 nM	152 nM
AAUUCAAACUGAAGGAGCGAGCAUUUUGGAGUGAUGUUCCAAGCGAGUGAUGUUCGCAUAGCUCAGGUAGGUCGCAGUUUGGAUA [Same State Arginie B GF 14]	143 nM	136 nM	144 nM	143 nM	139 nM
AAUUCAGUGAUGUUGGAAGGCAGGCGGGAUACCAGCGGAGAAUAACGCCCUUGGCAGCCCAUAUAUCCCAAAUAGAUAAUAGUUC [Same State - Theophylline A (Freestyle 3)]	386 nM	317 nM	410 nM	405 nM	376 nM
